{
  "source": "patent US20220185875A1",
  "about": "(JIANGSU HENGRUI MEDICINE, published 2022)",
  "binders": {"B1": {"name": "Llama-derived single domain antibody nano14 (VHH)", "VHH": "DVQLQESGGGLVQPGGSLRLSCAASGFTFDDFGMSWVRQAPGKGLEWVSSITWNGGSTYYADSVKGRFTISRDNAKNTVYLQMNSLKPEDTAIYYCNADHPQGYWGQGTQVTVSS"}, "B2": {"name": "Llama-derived single domain antibody nano15 (VHH)", "VHH": "DVQLQESGGGLVQPGGSLRLSCAASGFTFNSYAMSWVRQAPGKGLEWVSTINSGGGRTGYADSVKGRFTISRDNAKNTLYLQMNSLKPEDTAIYYCNADHPQGYWGQGTQVTVSS"}},
  "key": {"[1]": {"biological_target": "T1, human ANG2 with human Fc tag (huANG2-Fc) (human, biotin label (Dojindo kit LK03, position not stated) in Test Examples 3 and 4; unlabelled in Test Example 5)", "T1 construct": "It starts at YNNFRK, without a signal peptide; also called bio-huANG2-Fc; human Ang2-Fc", "assay": "competition ELISA: Tie2-Fc coated, biotin-huANG2-Fc 0.15 ug/ml premixed with antibody; blocking of ANG2 binding to Tie2", "protocol": "Specific methods: the ELISA plate was coated with Tie2-Fc (SEQ ID NO: 2, 3 μg/ml dissolved in PBS, 100 μl/well) overnight at 4° C. and the coating solution was removed, 5% skimmed milk blocking solution diluted with PBS was added at 200 μl/well and incubated in a 37° C. incubator for 2 h for blocking. After the blocking was completed, the blocking solution was discarded and the plate was washed with PBST buffer (PBS containing 0.05% tween-20, pH 7.4) for 5 times. […] The solution was mixed well and then incubated at 37° C. for 15 min, added to the ELISA plate and incubated at 37° C. for 1 h. After the incubation was completed, the reaction solution in the ELISA plate was discarded and the plate was washed 5 times with PB ST. Then 1:4000 diluted streptavidin-peroxidase polymer (Sigma, 52438-250UG) was added at 100 μl/well and incubated at 37° C. for 1 h. After washing the plate 5 times with PBST, 100 μl/well TMB chromogenic substrate (KPL, 52-00-03) was added and incubated at room temperature for 3-10 min, and 1 M H₂SO₄ was added at 100 μl/well to stop the reaction."}, "[2]": {"biological_target": "T2, biotin-hAng2-His (sinobiological, 10691-H07H) (human, UniProt O15123 19-496, biotin label, position not stated)", "T2 construct": "Bought reagent; also called Human ANG2-his; human ANG2", "T2 sequence (looked up)": "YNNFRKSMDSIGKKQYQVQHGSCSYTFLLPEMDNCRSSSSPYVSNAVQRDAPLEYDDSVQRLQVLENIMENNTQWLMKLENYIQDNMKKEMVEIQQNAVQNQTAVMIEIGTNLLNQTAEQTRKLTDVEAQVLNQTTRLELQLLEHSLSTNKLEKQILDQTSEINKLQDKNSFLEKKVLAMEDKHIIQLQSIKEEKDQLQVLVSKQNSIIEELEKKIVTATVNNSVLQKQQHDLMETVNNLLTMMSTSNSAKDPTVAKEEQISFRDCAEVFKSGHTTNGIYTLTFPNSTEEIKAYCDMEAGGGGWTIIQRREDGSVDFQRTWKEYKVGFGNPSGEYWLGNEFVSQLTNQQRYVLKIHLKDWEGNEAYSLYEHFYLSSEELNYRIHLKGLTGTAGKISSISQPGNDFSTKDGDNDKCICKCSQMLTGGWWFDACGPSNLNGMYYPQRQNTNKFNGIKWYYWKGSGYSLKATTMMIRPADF", "assay": "ELISA, biotin-hAng2-His captured on streptavidin plate, OD450", "protocol": "(§1) The plate was coated with streptavidin (abcam, ab123480) at a concentration of 1 ng/μl, 100 μl per well overnight at 4° C., and then the supernatant was removed. 250 μl 5% skimmed milk powder was added for blocking at 37° C. for 1 h, and the plate was washed with a washing machine for 3 times. 0.5 ng/μl biotin-hAng2-His (sinobiological, 10691-H07H) was added and incubated at 37° C. for 1 h. The plate was washed with a washing machine for 3 times, and 100 μl 1:1 diluted phage supernatant was added and incubated at 37° C. for 1 h. The plate was washed with a washing machine for 3 times, and 100 μl 1:10000 diluted anti-M13-HRP (GE, 27-9421-01) was added to each well and incubated at 37° C. for 1 h. The plate was washed with a washing machine for 3 times, and 100 μl TMB was added to each well for color development. After 5-10 min, 100 μl 1 M H₂SO₄ was added to each well to stop the color development, and the OD450 value was measured with a microplate reader."}, "human ANG1 (RD,923-AN)": {"biological_target": "T3, human ANG1 (RD,923-AN) (human, UniProt Q15389 20-498, limits assumed)", "T3 sequence (looked up)": "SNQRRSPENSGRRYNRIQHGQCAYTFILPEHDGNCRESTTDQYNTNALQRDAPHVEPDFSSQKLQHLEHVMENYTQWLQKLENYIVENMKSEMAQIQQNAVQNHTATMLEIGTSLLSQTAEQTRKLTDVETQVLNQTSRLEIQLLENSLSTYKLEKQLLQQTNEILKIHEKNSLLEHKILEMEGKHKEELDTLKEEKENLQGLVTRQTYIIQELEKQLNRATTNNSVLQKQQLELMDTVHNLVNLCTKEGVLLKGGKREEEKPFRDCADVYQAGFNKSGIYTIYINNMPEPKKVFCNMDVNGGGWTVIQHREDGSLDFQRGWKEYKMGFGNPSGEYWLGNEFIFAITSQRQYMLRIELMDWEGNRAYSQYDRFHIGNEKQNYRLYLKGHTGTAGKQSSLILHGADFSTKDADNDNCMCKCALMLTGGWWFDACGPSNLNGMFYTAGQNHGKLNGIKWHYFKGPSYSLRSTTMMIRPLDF", "assay": "ELISA, plate coated with human ANG1, OD450", "protocol": "as §1, with “human ANG1 (RD,923-AN)” for “streptavidin (abcam, ab123480)”, “C. The” for “C., and then the”, “removed and” for “removed.”, “blocking” for “blocking at 37° C. for 1 h, and the plate was washed with a washing machine for 3 times. 0.5 ng/μl biotin-hAng2-His (sinobiological, 10691-H07H) was added and incubated”, “M13-HRP” for “anti-M13-HRP (GE, 27-9421-01)”"}},
  "data": [
    {"binder": "B1", "values": [
      {"measurement": "IC50", "setting": "[1]", "result": 0.0393, "unit": "nM"},
      {"measurement": "EC50 (read off the curve)", "setting": "[2]", "result": "~0.08", "unit": "nM"},
      {"measurement": "binding result", "setting": "human ANG1 (RD,923-AN)", "result": "no binding (tested: 100 nM)"}
    ]},
    {"binder": "B2", "values": [
      {"measurement": "IC50", "setting": "[1]", "result": 0.0281, "unit": "nM"},
      {"measurement": "EC50 (read off the curve)", "setting": "[2]", "result": "~0.06", "unit": "nM"},
      {"measurement": "binding result", "setting": "human ANG1 (RD,923-AN)", "result": "no binding (tested: 100 nM)"}
    ]}
  ]
}
